Tests used:
[1] = target: T1, HCoV-NL63 spike antigens (bead panel) (HCoV-NL63, UniProt Q6Q1S2 19-1296); test: multiplex bead assay
T1 sequence: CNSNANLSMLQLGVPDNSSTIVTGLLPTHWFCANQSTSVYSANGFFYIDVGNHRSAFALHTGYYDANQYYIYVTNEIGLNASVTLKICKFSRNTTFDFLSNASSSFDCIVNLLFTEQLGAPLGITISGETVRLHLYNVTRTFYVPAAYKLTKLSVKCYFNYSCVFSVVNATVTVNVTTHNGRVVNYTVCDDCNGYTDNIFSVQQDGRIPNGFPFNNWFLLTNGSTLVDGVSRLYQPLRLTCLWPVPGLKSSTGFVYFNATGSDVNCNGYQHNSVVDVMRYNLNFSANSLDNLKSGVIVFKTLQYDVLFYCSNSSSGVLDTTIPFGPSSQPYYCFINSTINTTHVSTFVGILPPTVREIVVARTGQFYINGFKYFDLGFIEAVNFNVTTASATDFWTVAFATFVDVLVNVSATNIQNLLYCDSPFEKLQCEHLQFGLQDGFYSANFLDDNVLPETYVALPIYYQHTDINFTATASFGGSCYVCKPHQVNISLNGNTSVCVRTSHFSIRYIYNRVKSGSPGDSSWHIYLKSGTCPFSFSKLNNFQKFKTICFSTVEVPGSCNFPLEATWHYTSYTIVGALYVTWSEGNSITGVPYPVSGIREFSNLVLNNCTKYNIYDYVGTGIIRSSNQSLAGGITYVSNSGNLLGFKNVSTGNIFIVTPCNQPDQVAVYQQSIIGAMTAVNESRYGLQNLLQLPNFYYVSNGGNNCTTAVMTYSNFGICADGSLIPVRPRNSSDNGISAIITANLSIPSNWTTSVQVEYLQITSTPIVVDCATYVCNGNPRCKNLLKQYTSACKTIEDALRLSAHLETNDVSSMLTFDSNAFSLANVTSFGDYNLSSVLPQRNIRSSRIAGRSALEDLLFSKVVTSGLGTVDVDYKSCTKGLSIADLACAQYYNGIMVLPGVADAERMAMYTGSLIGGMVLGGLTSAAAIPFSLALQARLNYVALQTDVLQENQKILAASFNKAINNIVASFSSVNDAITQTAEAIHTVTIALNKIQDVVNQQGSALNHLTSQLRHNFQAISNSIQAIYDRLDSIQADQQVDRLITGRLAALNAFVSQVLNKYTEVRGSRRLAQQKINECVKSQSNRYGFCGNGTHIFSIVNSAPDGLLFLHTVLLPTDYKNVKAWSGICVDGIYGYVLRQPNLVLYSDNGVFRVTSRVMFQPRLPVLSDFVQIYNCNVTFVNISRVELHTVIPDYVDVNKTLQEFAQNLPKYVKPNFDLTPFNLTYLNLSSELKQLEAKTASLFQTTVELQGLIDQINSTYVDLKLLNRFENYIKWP

[2] = target: T2, HCoV-HKU1 spike antigens (bead panel) (HCoV-HKU1, UniProt Q5MQD0 13-1300); test: multiplex bead assay
T2 sequence: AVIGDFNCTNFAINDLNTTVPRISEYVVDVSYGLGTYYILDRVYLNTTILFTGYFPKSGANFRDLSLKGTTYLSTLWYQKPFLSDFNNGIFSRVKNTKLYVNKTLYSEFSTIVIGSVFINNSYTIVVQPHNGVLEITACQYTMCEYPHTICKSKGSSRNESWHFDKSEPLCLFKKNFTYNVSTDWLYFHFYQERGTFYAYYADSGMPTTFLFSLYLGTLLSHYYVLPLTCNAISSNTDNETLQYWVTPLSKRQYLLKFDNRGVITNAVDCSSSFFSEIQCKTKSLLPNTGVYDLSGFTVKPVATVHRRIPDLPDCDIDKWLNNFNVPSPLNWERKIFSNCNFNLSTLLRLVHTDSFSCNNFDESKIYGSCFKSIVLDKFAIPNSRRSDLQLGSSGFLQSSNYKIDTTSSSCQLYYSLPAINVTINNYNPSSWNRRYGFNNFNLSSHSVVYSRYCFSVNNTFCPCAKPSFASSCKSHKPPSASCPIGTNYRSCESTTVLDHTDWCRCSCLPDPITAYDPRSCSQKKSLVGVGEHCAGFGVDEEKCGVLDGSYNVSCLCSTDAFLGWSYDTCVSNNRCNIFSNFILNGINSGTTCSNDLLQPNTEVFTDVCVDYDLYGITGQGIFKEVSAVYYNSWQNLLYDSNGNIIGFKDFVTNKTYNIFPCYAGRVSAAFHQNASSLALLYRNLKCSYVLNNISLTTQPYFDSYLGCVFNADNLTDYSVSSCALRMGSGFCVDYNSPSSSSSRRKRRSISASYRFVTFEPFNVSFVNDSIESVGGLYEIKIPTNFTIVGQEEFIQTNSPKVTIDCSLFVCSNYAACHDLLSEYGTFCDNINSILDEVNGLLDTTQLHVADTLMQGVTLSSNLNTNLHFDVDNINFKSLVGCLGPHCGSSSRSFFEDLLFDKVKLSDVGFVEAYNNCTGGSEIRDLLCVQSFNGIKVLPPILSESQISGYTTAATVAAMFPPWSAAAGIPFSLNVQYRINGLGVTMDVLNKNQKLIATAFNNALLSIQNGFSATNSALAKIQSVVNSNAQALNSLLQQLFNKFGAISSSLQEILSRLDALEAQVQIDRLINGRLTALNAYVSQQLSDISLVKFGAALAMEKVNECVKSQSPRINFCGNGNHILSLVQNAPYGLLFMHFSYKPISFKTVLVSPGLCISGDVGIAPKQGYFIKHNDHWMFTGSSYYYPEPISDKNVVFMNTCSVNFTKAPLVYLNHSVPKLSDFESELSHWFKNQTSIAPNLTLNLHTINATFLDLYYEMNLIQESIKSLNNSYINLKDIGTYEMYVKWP

B1: COV_1025 (antibody, V domains shown)
VH: QVQLVESGGGVVQPGRSLRLSCAASGFTFNTYAMHWVRQAPGKGLEWVAIISYDGGNKYYADSMKGRFTISRDNSKNTLYLQMNSLRAEDTAVYYCARARTGNYYYGMDVWGQGTTVTVSS
VL: not shown
notes: human IgG1
[1]
  binding result: no binding
[2]
  binding result: no binding

B2: COV_2137 (antibody, V domains shown)
VH: EVQLVESGGGLVKPGGSLRLSCAASGFTFSSYTMNWVRQAPGKGLEWVSSISSGSSFIYYADSLRGRFTISRDNAKNSLYLQMNSLRAEDTAVYYCARAPEPQSVIYAYWYFDLWGRGTLVTVSS
VL: QSALTQPASVSGSPGQSITFSCTGTSSDVGSYNLVSWYQQYPGKAPKLMIYEVNKRPSGVSNRFSGSKSGNTASLTISGLQAEDEADYYCCSYAGSSTFYVFGTGTKVTVLG
notes: human IgG1
[1]
  binding result: no binding
[2]
  binding result: no binding

B3: COV_3053 (antibody, V domains shown)
VH: EVQLVESGGGLVQPGRSLRLSCTASGFTLGDYAMTWVRQAPGKGLEWLGIIRNKRYGETKQYAASVKGRFTFSRDDSKGIGYLQRLSLKIEDTGVYYCTREHIVRDDAFDVWGQGTTVTVSS
VL: DIVMTQSPDSLAVSLGERATINCKSSQSVLYSSNNKNYIAWYQQRPGQPPKLLIYWTSTRASGVPDRFSGSGSGTDFALTISSLQAEDVAVYYCQQYYTIPRTFGQGTKVEIK
notes: human IgG1
[1]
  binding result: no binding
[2]
  binding result: no binding

B4: COV_2032 (antibody, V domains shown)
VH: EVQLVESGGGLVQPGGSLRLSCAASGFTFTTYWMHWVRQAPGKGLVWVSRIKTDGSSTNYADSVKGRFTISRDNAKNMLYLQMNSLRAEDTAVYYCAREGPVSIVYFDYWGQGTLVTVSS
VL: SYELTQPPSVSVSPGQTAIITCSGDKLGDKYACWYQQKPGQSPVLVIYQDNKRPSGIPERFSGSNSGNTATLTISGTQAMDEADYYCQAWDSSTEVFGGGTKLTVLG
notes: human IgG1
[1]
  binding result: no binding
[2]
  binding result: no binding

B5: COV_1184 (antibody, V domains shown)
VH: QVQLQQWGAGLLKPSETLSLTCAVYGGSFSGYYWSWIRQPPGKGLEWIGEINHSGNTTYNPSLKSRVTISVDTSKNQFSLKLSSVTAADTAVYYCARGLVITYYYDSSGKPFDPWGQGTLVTVSS
VL: not shown
notes: human IgG1
[1]
  binding result: no binding
[2]
  binding result: no binding

B6: COV_1145 (antibody, V domains shown)
VH: QVQLVESGGGVVQPGRSLRLSCAASGFTFSSYGMHWVRQAPGKGLEWVAVIWYDGSNKYYADSVKGRFTISRDNSKNTLYLQMNSLRVEDTAVYYCAREGQLGATGLDCWGQGTLVSVSS
VL: SYELTQPPSVSVSPGQTARITCSGDALPKKYAYWYQQKSGQAPVLVIYEDSKRPSGIPERFSGSSSGTMATLTISGAQVEDEADYYCYSTDNSGNHWVFGGGTKLTVLG
notes: human IgG1
[1]
  binding result: no binding
[2]
  binding result: no binding

B7: COV_2215 (antibody, V domains shown)
VH: EVQLVESGGGLVKPGGSLRLSCAASGFTFSHAWMSWVRQAPGKGLEWVGRIKSKTDGGTADYAAPVKGRFTISRDDSKNTLYLQMNSLKTEDTAVYYCATIRYYYDSSAYLNDAFDIWGQGTMVTVSS
VL: SYELTQPPSVSVSPGQTARITCSGDALPKKYAYWYQQKSGQAPVLVIYEDSKRPSGIPERFSGSSSGTMATLTISGAQVEDEADYYCYSTDSSGNHRVFAGGTKLTVLG
notes: human IgG1
[1]
  binding result: no binding
[2]
  binding result: no binding

B8: COV_1118 (antibody, V domains shown)
VH: EVQLVESGGGLVKPGGSLRLSCAASGFSFSNYNMNWVRQAPGKGLEWVSYISSSSSYIYYADSVKGRFTISRDNAKNSLYLQMNSLRGEDTAVYSCAREASGAYYFDRSGYFDYWGQGTLVTVSP
VL: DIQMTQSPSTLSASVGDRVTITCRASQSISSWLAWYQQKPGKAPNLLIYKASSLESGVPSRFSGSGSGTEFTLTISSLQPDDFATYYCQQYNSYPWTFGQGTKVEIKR
notes: human IgG1
[1]
  binding result: no binding
[2]
  binding result: no binding

B9: COV_1136 (antibody, V domains shown)
VH: EVQLVESGGGLVKPGGSLRLSCAASGFTFSDCNMNWVRQAPGKGLEWVSSISSRSSYIYYADSVKGRFTISRDNAKNSLYLQMNSLRAEDTAVYSCAREASGAYYFDRSGYFDYWGQGTLVTVSP
VL: DIQMTQSPSTLSASVGDRVTITCRASQSISSWLAWYQQKPGKAPNLLIYKASSLESGVPSRFSGSGSGTEFTLTISSLQPDDFATYYCQQYNTYPWTFGQGTKVEIKR
notes: human IgG1
[1]
  binding result: no binding
[2]
  binding result: no binding

B10: COV_1154 (antibody, V domains shown)
VH: EVQLVESGGGLVKPGGSLRLSCAASGFRFSDYNMNWVRQAPGKGLEWVSYISSSSSYIYYADSVKGRFTISRDNAKNSLYLQMNSLRGEDTAVYSCAREASGAYYFDRSGYFDYWGQGTLVTVSP
VL: DIQMTQSPSTLSASVGDRVTITCRASQSISSWLAWYQQKPGKAPNLLIYKASSLESGVPSRFSGSGSGTEFTLTISSLQPYDFATYYCQQYNSYPWAFGQGTKVEMKR
notes: human IgG1
[1]
  binding result: no binding
[2]
  binding result: no binding

B11: COV_2205 (antibody, V domains shown)
VH: EVQLVESGGGLVKPGGSLRLSCAASGFTFSDYYMIWIRQAPGEGLEWVSYISSRSSYTNYADSVKGRFTISRDNARNSLYLQMNSLRAEDTAVYYCARGQHDLLTGYYSWAYFDYWGQGTLVTVSS
VL: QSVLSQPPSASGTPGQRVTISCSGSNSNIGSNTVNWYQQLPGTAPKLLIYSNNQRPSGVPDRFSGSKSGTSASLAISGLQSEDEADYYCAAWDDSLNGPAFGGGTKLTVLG
notes: human IgG1
[1]
  binding result: no binding
[2]
  binding result: no binding

B12: COV_2169 (antibody, V domains shown)
VH: EVQLVESGGGVVQPGRSLRLSCAASGFTFSRYAMHWVRQAPGKGLEWVAVISYEGSNKYYADSVKGRFTISRNNSNNTLSLQMNSLRPDDTAVYYCVRSGGHYFDAFDLWGQGTMVTVSS
VL: EIVLTQSPGTLSLSPGERATLSCRASQSVSRNYVAWYQQKPGQAPRLLIYGASSRATGIPDRFSGSGSGTDFTLTISRLEPEDFALYYCQQYGSSYTFGQGTKLEIKR
notes: human IgG1
[1]
  binding result: no binding
[2]
  binding result: no binding

B13: COV_1177 (antibody, V domains shown)
VH: QVQLVESGGGVVQPGRSLRLSCAASGFTFSSYGMHWVRQAPGKGLEWVAVIWYDGSNKYYADSVKGRFTISRDNSKNTLYLQMNSLRAEDTAVYYCARDPLGAVAGYFDYWGQGTLVTVSS
VL: SYVLTQPPSVSVAPGQTARITCGGNNIGSKSVHWYQQKPGQAPVLVVYDDSDRPSGIPERFSGSNSGNTATLTISRVEAGDEADYYCQVWDSSSDHHWVFGGGTKLTVLG
notes: human IgG1
[1]
  binding result: no binding
[2]
  binding result: no binding
